Source: patent publication EP2170953B1

Target: Aβ1-28 peptide, biotinylated (Anaspec)
Assay: ELISA on biotinylated peptide, Ab 10 µg/ml, mean of 2, background subtracted
Conditions: remark: other sources report otherwise

Aβ1-28 peptide, biotinylated (Anaspec), sequence (chain, as listed by the source): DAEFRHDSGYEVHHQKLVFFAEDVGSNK

O.D. (mean): -0.02 O.D.
B1: ACI-12-Ab-11 (antibody, V domains shown)
VL: QAVVTQESALTTSPGGTVILTCRSSTGAVTTSNYANWVQEKPDHLFTGLIGGTSNRAPGVPVRFSGSLIGDKAALTITGAQTEDDAMYFCALWYSTHYVFGGGTKVTVL
VH: QVQLQQSDAELVKPGASVKISCKVSGYTFTDHTIHWMKQRPEQGLEWIGYIYPRDGSTKYNEKFKGKATLTADKSSSTAYMQLNSLTSEDSAVYFCARDYGYAFDYWGQGTTLTVSS
modifications: here or on the partner: biotinylated (position not given)
